Article doi:10.1101/2020.09.16.300517
“And” between values parts separate entries of the source, which are not always exact repeats. Identical values can stand only once.

How the values were obtained:
[1] = target: bovine cardiac ventricular β-myosin subfragment 1 (α-chymotryptic S1) (bovine); assay: stopped-flow fluorescence kinetics
[2] = target: phalloidin-stabilized pyrene-labeled F-actin (rabbit) (UniProt P68135); assay: other fluorescence titration

Kd [1]	PFA fluorescence restored by MgATP, with Mava [2]	PFA fluorescence restored by MgATP, with OM [2]	decrease in pyrene fluorescence intensity at S1:actin 0.7:1 [2]	stoichiometry N [2]	Substance
48 nM and 57 nM	–	–	–	–	phalloidin-stabilized pyrene-labeled F-actin (from UniProt P68135 1-377) (natural protein)
–	84%	65%	46%	1 S1 per actin	bovine cardiac ventricular β-myosin subfragment 1 (α-chymotryptic S1) (domain or fragment)
